Data taken from publication PMC10873205 (Nature Structural & Molecular Biology, 2024).
Changes are numbered by the printed parent chain. Names and notes keep the numbering of the source.

Key:
[1] = molecular target: T1, UBE2A (UniProt P49459 1-152); assay: ITC; UBR4 construct in the cell (74 μM), UBE2A in the syringe at tenfold higher concentration; 25 °C; 0.4 µl then 13 injections of 3 µl; UBE2A into buffer subtracted; single site binding model; settings: both partners purified
T1 construct: also called UBE2A WT; source: E. coli BL21(DE3), purified (glutathione Sepharose 4B or Ni-NTA, SEC); not shown: GST (from the vector pGEX6P-3), N-terminal, cleaved

[2] = molecular target: UBE2A (UniProt P49459 1-152); assay: as above; settings: both partners purified

B1: UBR4_(xtal) (UBR4 residues 4,730–5,183) (domain or fragment)
chain: AIQHPGTQVLIGTDSIPNLHKLEQVSSDEGIGTLAENLLEALREHPDVNKKIDAARRETRAEKKRMAMAMRQKALGTLGMTTNEKGQVVTKTALLKQMEELIEEPGLTCCICREGYKFQPTKVLGIYTFTKRVALEEMENKPRKQQGYSTVSHFNIVHYDCHLAAVRLARGREEWESAALQNANTKCNGLLPVWGPHVPESAFATCLARHNTYLQECTGQREPTYQLNIHDIKLLFLRFAMEQSFSADTGGGGRESNIHLIPYIIHTVLYVLNTTRATSREEKNLQGFLEQPKEKWVESAFEVDGPYYFTVLALHILPPEQWRATRVEILRRLLVTSQARAVAPGGATRLTDKAVKDYSAYRSSLLFWALVDLIYNMFKKVPTSNTEGGWSCSLAEYIRHNDMPIYEAADKALKTFQEEFMPVETFSEFLDVAGLLSEITDPESFLKDLLNSVP
notes: UBR4, human, residues 4,730–5,183 (runs to the native C-terminus); holds the unresolved N-terminal region, the hemiRING zinc finger and the UZI subdomain; The GST tag is said to be cleaved for crystallization and autoubiquitination assays; Cloning strategy is in Supplementary Data 1; also called UBR4_(4730–5183); hemiRING-UZI module construct; source: E. coli BL21(DE3), purified (glutathione …)
Question: Which Kd [1] does the source give for B1 here?
Answer: 1.19 µM

B2: UBR4_(xtal) Ser4930Arg (domain or fragment)
chain: B1 chain with S201R
notes: also called UBR4 Ser4930Arg; S4930R; source: E. coli BL21(DE3), purified (glutathione sepharose 4B, SEC)
Question: Does B2 bind [1]?
Answer: binds

B3: UBR4_(4828–5183) (domain or fragment)
chain: EELIEEPGLTCCICREGYKFQPTKVLGIYTFTKRVALEEMENKPRKQQGYSTVSHFNIVHYDCHLAAVRLARGREEWESAALQNANTKCNGLLPVWGPHVPESAFATCLARHNTYLQECTGQREPTYQLNIHDIKLLFLRFAMEQSFSADTGGGGRESNIHLIPYIIHTVLYVLNTTRATSREEKNLQGFLEQPKEKWVESAFEVDGPYYFTVLALHILPPEQWRATRVEILRRLLVTSQARAVAPGGATRLTDKAVKDYSAYRSSLLFWALVDLIYNMFKKVPTSNTEGGWSCSLAEYIRHNDMPIYEAADKALKTFQEEFMPVETFSEFLDVAGLLSEITDPESFLKDLLNSVP
modifications: one Zn2+ bound (Cys4838, Cys4841, His4887, Cys4890). The C-terminal limit 5183 is taken from the Fig. 7 title and legend and the structure section; '4828-5130' in the ITC text is treated as a …
Question: For B3, which Kd [2] is on record?
Answer: 89.8 µM
